According to patent US20150217006A1, “AL-F-18-LABELED, AL-F-19-LABELED AND GA-68-LABELED GASTRIN-RELEASING PEPTIDE RECEPTOR (GRPR)-ANTAGONISTS FOR IMAGING OF PROSTATE CANCER” (Immunomedics, Inc., priority 2014, published 2015):

Molecular target: gastrin-releasing peptide receptor (GRPR) (human) (UniProt P30550)
Experiment: competition with 125I-BBN on PC-3 cells, repeat experiment, inhibitor 250 to 2 nM

Chain of gastrin-releasing peptide receptor (GRPR) (human) (P30550 whole entry): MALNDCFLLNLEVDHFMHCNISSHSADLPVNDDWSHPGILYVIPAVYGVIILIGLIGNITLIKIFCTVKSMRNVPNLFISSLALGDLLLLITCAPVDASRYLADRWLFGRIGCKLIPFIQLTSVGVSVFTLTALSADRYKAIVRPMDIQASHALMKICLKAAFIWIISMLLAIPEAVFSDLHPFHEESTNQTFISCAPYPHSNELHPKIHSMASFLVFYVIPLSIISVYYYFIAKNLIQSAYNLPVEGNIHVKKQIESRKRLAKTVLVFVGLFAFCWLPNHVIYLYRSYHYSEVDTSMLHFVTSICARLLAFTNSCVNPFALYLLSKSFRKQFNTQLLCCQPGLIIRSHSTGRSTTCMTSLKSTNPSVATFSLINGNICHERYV

- IC50: 24.4 nM
Substance: commercially available BBN peptide
